Read-outs that look alike come from different tables or passages of the source.

The stoichiometry N is the number of molecules, sites or subunits per partner or assembly.

Holding throughout (assay): AUC
The target in assay [1] is EYFP (Aequorea victoria).
For assay [2], the target named is EYFP (Aequorea victoria). This is another data set of the same source.
In assay [3] the target is EGFP (Aequorea victoria).
The target of assay [4] is EGFP (Aequorea victoria). This is another data set of the same source.

Turning to EYFP, the stoichiometry N in assay [1] and in assay [2] was 2 in each case.

As to EGFP, the stoichiometry N in assay [3] and in assay [4] was 2 in each case.

The record behind these values is article doi:10.1101/2024.10.04.616694.
